Experiment [1] addresses EpCAM ECD (Homo sapiens) (UniProt P16422). The note with it: cited from earlier work.
Experiment [2] has as its target mCherry-EpFL (N-terminal fusion of mCherry to full-length EpCAM) (UniProt P16422). The experiment is described as follows: FRET or BRET; FLIM-FRET, donor sfGFP and acceptor mCherry both N-terminal on EpFL, co-transfected in the same cell (cis; GFPEX/CherryEX), equimolar plasmids; HEK 293 T and HCT8 #L13 cells, fixed; whole cell membrane region.
For experiment [3], the target named is EpCAM ECD (Homo sapiens) (UniProt P16422). The conditions noted are these: cited from earlier work. This is another data set of the same source.

Consider three substances from article PMC6125409.

Read-outs that look alike come from different tables or passages of the source.

A word on the Kd: it is the equilibrium constant for the complex coming apart. With “EpCAM cis-dimer ECD (from UniProt P16422)”, the Kd with EpCAM ECD (Homo sapiens) [1] is 0.01 µM.

For the substance “sfGFP-EpFL (N-terminal fusion of sfGFP to full-length EpCAM) (from UniProt P16422 24-314) (receptor)”, the average donor fluorescence lifetime in experiment [2] worked out at 1.6 ns.

Turning to “EpCAM trans-tetramer (dimer-dimer) ECD (from UniProt P16422)”, the dissociation constant (Kd) with EpCAM ECD (Homo sapiens) [3] was 10 µM.
